B1: human Hsp90β K607A (natural protein)
chain: not shown
notes: Hsp90β, human; pET28 vector, site-directed mutagenesis; source: E. coli BL21 (DE3) cod+, purified (HisTrap, Resource Q, Superdex 200)
B2: human Hsp90β K607E (natural protein)
chain: not shown
notes: as for B1
B3: human Hsp90β K607I (natural protein)
chain: not shown
notes: as for B1
B4: human Hsp90β K607R (natural protein)
chain: not shown
notes: as for B1

Biological target: the molecule itself
Test: SEC; Hsp90 dimerization assay: dilution series on Superdex 200 increase 10/300 GL (Shimadzu HPLC), fluorescence detection, 25 °C, 40 mM Hepes pH 7.5, 150 mM KCl, 5 mM MgCl2, 2 mM DTT; human Hsp90β 2 nM to 4 µM, yeast Hsp90 16 nM to 2 µM; KD = KD(app) divided by the dilution factor (about 4); dimer to monomers
B1: binds.
B2: binds.
B3: binds.
B4: binds.
